Source: publication PMC7346273 (ACS Omega, 2020)

Target: Aβ42 monomer (UniProt P05067 672-713)
Assay: NMR titration

Sequence of Aβ42 monomer (P05067 672-713): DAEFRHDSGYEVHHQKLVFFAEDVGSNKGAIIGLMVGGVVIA

- binding result: binds
Binder: GFLLHQK [P_(active)]
